Data as given in article PMC4303003, “Repressive mutations restore function-loss caused by the disruption of trimerization in Escherichia coli multidrug transporter AcrB” (Frontiers in Microbiology, 2015).

Target: the molecule itself
Assay: native gel or EMSA; BN-PAGE of purified AcrB proteins; loading buffer with 1% dodecylmaltoside, 0.1% Coomassie G-250, pH 7.0; 4-15% gradient gel, 15 mA, 4°C, 2 h; trimer and monomer bands quantified with ImageJ; trimer to monomers

B1: wild type AcrB (Escherichia coli multidrug transporter AcrB) (natural protein)
chain: MPNFFIDRPIFAWVIAIIIMLAGGLAILKLPVAQYPTIAPPAVTISASYPGADAKTVQDTVTQVIEQNMNGIDNLMYMSSNSDSTGTVQITLTFESGTDADIAQVQVQNKLQLAMPLLPQEVQQQGVSVEKSSSSFLMVVGVINTDGTMTQEDISDYVAANMKDAISRTSGVGDVQLFGSQYAMRIWMNPNELNKFQLTPVDVITAIKAQNAQVAAGQLGGTPPVKGQQLNASIIAQTRLTSTEEFGKILLKVNQDGSRVLLRDVAKIELGGENYDIIAEFNGQPASGLGIKLATGANALDTAAAIRAELAKMEPFFPSGLKIVYPYDTTPFVKISIHEVVKTLVEAIILVFLVMYLFLQNFRATLIPTIAVPVVLLGTFAVLAAFGFSINTLTMFGMVLAIGLLVDDAIVVVENVERVMAEEGLPPKEATRKSMGQIQGALVGIAMVLSAVFVPMAFFGGSTGAIYRQFSITIVSAMALSVLVALILTPALCATMLKPIAKGDHGEGKKGFFGWFNRMFEKSTHHYTDSVGGILRSTGRYLVLYLIIVVGMAYLFVRLPSSFLPDEDQGVFMTMVQLPAGATQERTQKVLNEVTHYYLTKEKNNVESVFAVNGFGFAGRGQNTGIAFVSLKDWADRPGEENKVEAITMRATRAFSQIKDAMVFAFNLPAIVELGTATGFDFELIDQAGLGHEKLTQARNQLLAEAAKHPDMLTSVRPNGLEDTPQFKIDIDQEKAQALGVSINDINTTLGAAWGGSYVNDFIDRGRVKKVYVMSEAKYRMLPDDIGDWYVRAADGQMVPFSAFSSSRWEYGSPRLERYNGLPSMEILGQAAPGKSTGEAMELMEQLASKLPTGVGYDWTGMSYQERLSGNQAPSLYAISLIVVFLCLAALYESWSIPFSVMLVVPLGVIGALLAATFRGLTNDVYFQVGLLTTIGLSAKNAILIVEFAKDLMDKEGKGLIEATLDAVRMRLRPILMTSLAFILGVMPLVISTGAGSGAQNAVGTGVMGGMVTATVLAIFFVPVFFVVVRRRFSRKNEDIEHSHTVDHH
notes: AcrB, inner membrane RND multidrug transporter of Escherichia coli, encoded on plasmid pQE70-AcrB; also called WT AcrB; WT; source: E. coli BW25113ΔacrB transformed with pQE70-AcrB (in cells for cross-linking); purified as described (Lu et al., 2011) for BN-PAGE
B1: binds.
